Results published in patent US20100196282A1, “OPTICAL IMAGING AGENTS” (priority 2007, published 2010).
Where a SMILES comes first, the peptide text is derived from it. Bridges are numbered along the chain shown (N, C = ends). The star is where a group is joined. X3 = CCN(CCCS(=O)(=O)O)c1ccc2c(c1)OC(C(C)(C)C)=C/C2=C\C=C\C1=[N+](CCCCCC(=O)*)c2ccc(S(=O)(=O)[O-])cc2C1(C)C

Experiments:
[1] = molecular target: T1, human serum albumin (Homo sapiens, UniProt P02768); test: in vitro
Text: Fluorescence polarisation assay was used to examine the affinity binding of the imaging agent towards the cMet target as well as the binding properties related to plasma proteins. The principle of the fluorescence polarisation method can briefly be described as follows:
(§1) The change of the polarization value was used to assess the binding of the Compound to human serum albumin as a low change of polarisation value is associated to low binding being appropriate for in-vivo use.

[2] = molecular target: T1, human serum albumin
[3] = molecular target: T2, human c-Met/Fc chimera (Homo sapiens, UniProt P08581); test: Fluorescence polarisation assay, affinity binding to cMet; conditions: 5 nM dye-labelled peptide, c-Met/Fc 0-250 nM, 10 min at 30° C., one-site binding
T2 construct: Fc (immunoglobulin Fc fusion partner); purchased R&D Systems
Protocol: Monochromatic light passes through a […] polarizing filter and excites fluorescent molecules in the sample. Only those molecules that oriented properly in the vertically polarized plane adsorb light, become excited, and subsequently emit light. The emitted light is measured in both horizontal and vertical planes. The anisotropy value (A), is the ratio between the light intensities following the equation
The fluorescence anisotropy measurements were performed in 384-well microplates in a volume of 10 μL in binding buffer (PBS, 0.01% Tween-20, pH 7.5) using a Tecan Safire fluorescence polarisation plate reader (Tecan, US) at Ex 635/Em 678 nm. The concentration of dye-labelled peptide was held constant (5 nM) and the concentration of the human c-Met/Fc chimera (R&D Systems) was varied from 0-250 nM. Binding mixtures were equilibrated in the microplate for 10 min at 30° C. The observed change in anisotropy was fitted to the equation: […]
where robs is the observed anisotropy, rfree is the anisotropy of the free peptide, rbound is the anisotropy of the bound peptide, Kd is the dissociation constant, cMet is the total c-Met concentration, and P is the total dye-labelled peptide concentration. The equation assumes that the synthetic peptide and the receptor form a reversible complex in solution with 1:1 stoichiometry. Data fitting was done via nonlinear regression using SigmaPlot software to obtain the Kd value (one-site binding).
Compounds 1 to 6 were tested for binding towards human c-Met (Fc chimera).

[4] = in vitro; conditions: mouse, plasma
Text: as §1

[5] = system: HT-29 human colon carcinoma tumour (c-Met expressing); test: In vivo optical imaging of HT-29 tumour-bearing nude mice; design: species or system mouse; conditions: HT-29 s.c. tumours in female BALB c/A nude mice, i.v., 635 nm excitation
Text: Female BALB c/A nude (Born) mice were used in the study. The use of the animals was approved by the local ethics committee. BALB c/A nude is an inbred immunocompromised mouse strain with a high take rate for human tumours as compared to other nude mice strains. The mice were 8 weeks old upon arrival and with a body weight of approx. 20 grams at the start of the study. The animals were housed in individually ventilated cages (IVC, Scanbur BK) with HEPA filtered air. The animals had ad libitum access to “Rat and Mouse nr. 3 Breeding” diet (Scanbur BK) and tap water acidified by addition of HCl to a molar concentration of 1 mM (pH 3.0).
The colon cancer cell HT-29 is derived from human colon carcinomas and is reported to express c-Met according to Zeng et al [Clin. Exp. Metastasis, 21, 409-417. (2004)]. The cell line was proven to be tumorigenic when inoculated subcutaneously into nude mice [Flatmark et al, Eur. J. Cancer 40, 1593-1598 (2004)].
HT-29 cells were grown in McCoy's 5a medium (Sigma #M8403) supplemented with 10% fetal bovine serum and penicillin/streptomycin. Stocks were made at passage number four (P4) and frozen down for storage in liquid nitrogen at 10^7 cells/vial in the respective culture media containing 5% DMSO. On the day of the transplantation, the cells were thawed quickly in 37° C. water bath (approx. 2 min), washed and resuspended in PBS/2% serum (centrifugation at 1200 rpm for 10 min). Thorough mixing of cells in the vials was ensured every time the cells were aspirated into the dosing syringe. A volume of 0.1 ml of cell suspension was injected s.c. at the shoulder and at the back using a fine bore needle (25 G). The animals were then returned to their cages and the tumours were allowed to grow for 13-17 days. The animals were allowed an acclimatisation period of at least 5 days before the inoculation procedure.
All test substances were reconstituted with PBS from freeze-dried powder. A small stack of white printer paper was imaged to obtain a flat field image which was used to correct for illumination inhomogeneities.
For immobilisation during the optical imaging procedure, the animals were anaesthetized in a coaxial open mask to light surgical level anaesthesia with Isoflurane (typically 1.3-2%), using oxygen as the carrier gas. A small piece of skin (3-5 mm) was removed over parts of the tumour and adjacent muscle using a surgical forceps and fine scissors while the animal was anaesthetized. This was done to measure the signal from tumour and muscle without interference from the overlying skin tissue. The wound was covered by applying a liquid, non-fluorescent bandage spray (3M, MN, USA).
The respiration and body temperature of the animal was monitored with a BioVet system (m2m Imaging Corp, NJ, USA) using a pneumatic sensor underneath the animal and a rectal temperature probe. The BioVet system also supplied external heating using a heating mat set to 40° C. to sustain normal body temperature for the duration of the imaging procedure (2 hours). A Venflon catheter was placed in the tail vein for contrast agent administration. Each animal was given one contrast agent injection. The injected volume was 0.1 ml of test compound followed immediately by a 0.2 ml saline flush. Fluorescence images were acquired just prior to injection and then every 30 seconds for 2 hours.
Imaging was performed through a clinical laparoscope adapted to use a light source to excite the reporter and a filtering system to extract the fluorescence component. […]

T1 sequence (P02768 25-609): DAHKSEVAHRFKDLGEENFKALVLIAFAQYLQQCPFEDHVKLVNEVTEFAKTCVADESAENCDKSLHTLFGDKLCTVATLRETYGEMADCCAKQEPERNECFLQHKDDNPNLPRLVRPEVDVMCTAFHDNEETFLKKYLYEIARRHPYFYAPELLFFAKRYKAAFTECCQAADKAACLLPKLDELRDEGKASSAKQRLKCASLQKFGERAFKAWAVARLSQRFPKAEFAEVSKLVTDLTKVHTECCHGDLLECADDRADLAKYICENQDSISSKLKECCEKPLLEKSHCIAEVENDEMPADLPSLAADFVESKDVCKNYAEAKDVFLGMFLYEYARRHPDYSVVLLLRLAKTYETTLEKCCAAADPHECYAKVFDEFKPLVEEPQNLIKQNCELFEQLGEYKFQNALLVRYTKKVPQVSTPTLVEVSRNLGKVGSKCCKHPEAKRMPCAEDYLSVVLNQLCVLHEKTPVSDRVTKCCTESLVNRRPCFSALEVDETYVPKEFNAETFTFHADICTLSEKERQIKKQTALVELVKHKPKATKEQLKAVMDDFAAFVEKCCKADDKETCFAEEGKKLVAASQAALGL
T2 sequence (P08581 with tags, fused parts or gaps limits assumed): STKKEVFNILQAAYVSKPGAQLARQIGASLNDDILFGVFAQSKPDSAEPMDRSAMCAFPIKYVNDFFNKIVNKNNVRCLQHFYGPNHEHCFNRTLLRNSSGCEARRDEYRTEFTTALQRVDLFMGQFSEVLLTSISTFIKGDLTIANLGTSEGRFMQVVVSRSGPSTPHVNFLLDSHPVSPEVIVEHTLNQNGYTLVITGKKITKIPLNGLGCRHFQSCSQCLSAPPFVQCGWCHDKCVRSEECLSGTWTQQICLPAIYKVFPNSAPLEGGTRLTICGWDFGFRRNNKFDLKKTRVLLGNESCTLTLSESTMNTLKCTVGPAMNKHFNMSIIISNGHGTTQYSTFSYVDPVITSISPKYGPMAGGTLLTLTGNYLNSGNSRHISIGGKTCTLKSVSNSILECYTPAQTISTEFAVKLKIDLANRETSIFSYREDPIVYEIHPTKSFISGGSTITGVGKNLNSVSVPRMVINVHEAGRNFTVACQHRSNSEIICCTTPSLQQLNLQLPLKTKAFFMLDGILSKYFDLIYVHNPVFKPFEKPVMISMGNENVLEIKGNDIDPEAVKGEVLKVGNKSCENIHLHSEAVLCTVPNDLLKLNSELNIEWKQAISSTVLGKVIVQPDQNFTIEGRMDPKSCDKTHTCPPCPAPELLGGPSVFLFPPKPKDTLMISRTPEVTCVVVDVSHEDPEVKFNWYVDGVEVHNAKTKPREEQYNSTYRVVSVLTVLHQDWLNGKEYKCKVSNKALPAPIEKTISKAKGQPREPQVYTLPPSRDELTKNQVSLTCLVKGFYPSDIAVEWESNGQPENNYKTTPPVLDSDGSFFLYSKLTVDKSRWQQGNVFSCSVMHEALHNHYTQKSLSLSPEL
T2 sequence (P08581 25-307 limits assumed, change not shown): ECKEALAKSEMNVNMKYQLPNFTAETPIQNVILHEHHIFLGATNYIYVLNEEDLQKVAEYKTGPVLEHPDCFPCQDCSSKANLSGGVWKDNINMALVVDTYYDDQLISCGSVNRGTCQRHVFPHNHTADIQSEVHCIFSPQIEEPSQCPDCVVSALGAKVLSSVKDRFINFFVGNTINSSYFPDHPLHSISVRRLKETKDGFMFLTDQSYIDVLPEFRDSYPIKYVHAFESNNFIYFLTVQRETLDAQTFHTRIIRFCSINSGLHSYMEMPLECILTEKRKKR

## CCN(CCCS(=O)(=O)O)c1ccc2c(c1)OC(C(C)(C)C)=C/C2=C\C=C\C1=[N+](CCCCCC(=O)NCCCC[C@H](NC(=O)CNC(=O)CNC(=O)CNC(=O)[C@@H](NC(=O)CNC(=O)[C@H](CCC(=O)O)NC(=O)[C@@H](NC(=O)[C@H](CCC(=O)O)NC(=O)[C@H](Cc2ccc(O)cc2)NC(=O)[C@@H]2CSSC[C@H](NC(=O)[C@H](CO)NC(=O)CNC(=O)[C@H](C)NC(C)=O)C(=O)N[C@@H](Cc3ccc(O)cc3)C(=O)N[C@H]3CSSC[C@H](NC(=O)[C@H](CCC(=O)O)NC(=O)[C@H](Cc4ccccc4)NC(=O)[C@H](CCCNC(=N)N)NC(=O)[C@@H]4CCCN4C(=O)[C@@H]4CCCN4C(=O)CNC(=O)[C@H](CO)NC3=O)C(=O)N[C@@H](Cc3c[nH]c4ccccc34)C(=O)N2)[C@@H](C)O)[C@@H](C)O)C(N)=O)c2ccc(S(=O)(=O)[O-])cc2C1(C)C [Compound 3] (Ac-AGSCYCSGPPRFECWCYETEGTGGGK(X3)-NH2; disulfide 4-16, 6-14)
[1]
  fraction unbound: 0.73
[2]
  Binding human serum albumin (Biacore): Low
[3]
  Kd: 0.5 nM
[4]
  remaining at 2 h: > 95%
[5]
  Average tumour:muscle ratio (2 hours p.i.): 1.67
